target: von Willebrand factor (vWF), prepared from plasma cryo fraction, P04275

Row | Protein | vWF cleaving activity (SDS-PAGE)
1 | W897stop (C-terminal deletion variant of ADAMTS-13, FLAG appended) (protein) PSHFQQSCLQALEPQAVSSYLSPGAPLKGRPPSPGFQRQRQRQRRAAGGILHLELLVAVGPDVFQAHQEDTERYVLTNLNIGAELLRDPSLGAQFRVHLVKMVILTEPEGAPNITANLTSSLLSVCGWSQTINPEDDTDPGHADLVLYITRFDLELPDGNRQVRGVTQLGGACSPTWSCLITEDTGFDLGVTIAHEIGHSFGLEHDGAPGSGCGPSGHVMASDGAAPRAGLAWSPCSRRQLLSLLSAGRARCVWDPPRPQPGSAGHPPDAQPGLYYSANEQCRVAFGPKAVACTFAREHLDMCQALSCHTDPLDQSSCSRLLVPLLDGTECGVEKWCSKGRCRSLVELTPIAAVHGRWSSWGPRSPCSRSCGGGVVTRRRQCNNPRPAFGGRACVGADLQAEMCNTQACEKTQLEFMSQQCARTDGQPLRSSPGGASFYHWGAAVPHSQGDALCRHMCRAIGESFIMKRGDSFLDGTRCMPSGPREDGTLSLCVSGSCRTFGCDGRMDSQQVWDRCQVCGGDNSTCSPRKGSFTAGRAREYVTFLTVTPNLTSVYIANHRPLFTHLAVRIGGRYVVAGKMSISPNTTYPSLLEDGRVEYRVALTEDRLPRLEEIRIWGPLQEDADIQVYRRYGEEYGNLTRPDITFTYFQPKPRQAWVWAAVRGPCSVSCGAGLRWVNYSCLDQARKELVETVQCQGSQQPPAWPEACVLEPCPPYWAVGDFGPCSASCGGGLRERPVRCVEAQGSLLKTLPPARCRAGAQQPAVALETCNPQPCPARWEVSEPSSCTSAGGAGLALENETCVPGADGLEAPVTEGPGSVDEKLPAPEPCVGMSCPPGWGHLDATSAGEKAPSPWGSIRTGAQAAHVWDYKDDDDK | vWF cleaving activity was clearly recognized from the full-length molecule to W688stop molecule
2 | W808stop (C-terminal deletion variant of ADAMTS-13, FLAG appended) (protein) PSHFQQSCLQALEPQAVSSYLSPGAPLKGRPPSPGFQRQRQRQRRAAGGILHLELLVAVGPDVFQAHQEDTERYVLTNLNIGAELLRDPSLGAQFRVHLVKMVILTEPEGAPNITANLTSSLLSVCGWSQTINPEDDTDPGHADLVLYITRFDLELPDGNRQVRGVTQLGGACSPTWSCLITEDTGFDLGVTIAHEIGHSFGLEHDGAPGSGCGPSGHVMASDGAAPRAGLAWSPCSRRQLLSLLSAGRARCVWDPPRPQPGSAGHPPDAQPGLYYSANEQCRVAFGPKAVACTFAREHLDMCQALSCHTDPLDQSSCSRLLVPLLDGTECGVEKWCSKGRCRSLVELTPIAAVHGRWSSWGPRSPCSRSCGGGVVTRRRQCNNPRPAFGGRACVGADLQAEMCNTQACEKTQLEFMSQQCARTDGQPLRSSPGGASFYHWGAAVPHSQGDALCRHMCRAIGESFIMKRGDSFLDGTRCMPSGPREDGTLSLCVSGSCRTFGCDGRMDSQQVWDRCQVCGGDNSTCSPRKGSFTAGRAREYVTFLTVTPNLTSVYIANHRPLFTHLAVRIGGRYVVAGKMSISPNTTYPSLLEDGRVEYRVALTEDRLPRLEEIRIWGPLQEDADIQVYRRYGEEYGNLTRPDITFTYFQPKPRQAWVWAAVRGPCSVSCGAGLRWVNYSCLDQARKELVETVQCQGSQQPPAWPEACVLEPCPPYWAVGDFGPCSASCGGGLRERPVRCVEAQGSLLKTLPPARCRAGAQQPAVALETCNPQPCPARWDYKDDDDK | vWF cleaving activity was clearly recognized from the full-length molecule to W688stop molecule
3 | W746stop (C-terminal deletion variant of ADAMTS-13, FLAG appended) (protein) PSHFQQSCLQALEPQAVSSYLSPGAPLKGRPPSPGFQRQRQRQRRAAGGILHLELLVAVGPDVFQAHQEDTERYVLTNLNIGAELLRDPSLGAQFRVHLVKMVILTEPEGAPNITANLTSSLLSVCGWSQTINPEDDTDPGHADLVLYITRFDLELPDGNRQVRGVTQLGGACSPTWSCLITEDTGFDLGVTIAHEIGHSFGLEHDGAPGSGCGPSGHVMASDGAAPRAGLAWSPCSRRQLLSLLSAGRARCVWDPPRPQPGSAGHPPDAQPGLYYSANEQCRVAFGPKAVACTFAREHLDMCQALSCHTDPLDQSSCSRLLVPLLDGTECGVEKWCSKGRCRSLVELTPIAAVHGRWSSWGPRSPCSRSCGGGVVTRRRQCNNPRPAFGGRACVGADLQAEMCNTQACEKTQLEFMSQQCARTDGQPLRSSPGGASFYHWGAAVPHSQGDALCRHMCRAIGESFIMKRGDSFLDGTRCMPSGPREDGTLSLCVSGSCRTFGCDGRMDSQQVWDRCQVCGGDNSTCSPRKGSFTAGRAREYVTFLTVTPNLTSVYIANHRPLFTHLAVRIGGRYVVAGKMSISPNTTYPSLLEDGRVEYRVALTEDRLPRLEEIRIWGPLQEDADIQVYRRYGEEYGNLTRPDITFTYFQPKPRQAWVWAAVRGPCSVSCGAGLRWVNYSCLDQARKELVETVQCQGSQQPPAWPEACVLEPCPPYWDYKDDDDK | vWF cleaving activity was clearly recognized from the full-length molecule to W688stop molecule

From patent publication US20060251655A1
